Laboratory results taken from patent US20210302429.

Tests used:
[1] = tested on: full length human H1.0 protein
[2] = tested on: T1, H1.0K180me2 peptide
T1 sequence: AKPVKASKPKKAKPVKPK

[3] = tested on: T2, unmodified H1.0 peptide
T2 sequence: AKPVKASKPKKAKPVKPK

Substance	sites of methylation, LC-MS [1]	peptides further methylated, LC-MS [2]	peptides dimethylated at K180, LC-MS spectral counts [3]	in vitro methylation assay with increasing amounts of G9A [1]	further methylated peptide H1.0K166me1K180me2, LC-MS [2]	further methylated peptide H1.0K174me1K180me3, LC-MS [2]	further methylated peptide H1.0K174me3K175me3K177me1K180me2, LC-MS [2]	estimated methylation efficiency, LC-MS [3]	in vitro methylation with tritium-labeled methyl donor, gel autoradiography [3]
GLP methyltransferase	GLP methylates a large number of lysine residues on the C-terminal tail of H1.0, lacking the specificity of G9A	1.02% of peptides are further methylated	96.6% of all peptides						
G9A methyltransferase	G9A methylates C-terminal lysine residues, including H1.0K180me2	only 2.64% of peptides are further methylated	99.9% of all peptides	G9A is capable of dimethylating full length H1.0 at K180	1.27% of the total peptide in the reaction	1.06% of the total peptide in the reaction	0.35% of the total peptide in the reaction	an estimated methylation efficiency of about 99%	The appearance of a band at 4 kDa shows that The G9A methyltransferase capable of methylating H1.0 peptide
